The values that follow are results of earlier work, collected in paper PMC6359508.

By Kd is commonly meant the constant that tells how readily two partners part at equilibrium.

The data set has as its target actin microfilament (UniProt P68133).

With “V-ATPase B subunit (from UniProt P21281)”, the equilibrium dissociation constant (Kd) was 150 nM.
